{"source": "paper PMC3159453", "about": "(Nucleic Acids Research, 2011)", "key": {"LexA A29R1 (LexA29)": {"target": "LexA A29R1 (LexA29) (Escherichia coli K-12 RW118, UniProt P0A7C2 1-202, A29C)", "assay": "EPR"}, "LexA G54R1 (LexA54)": {"target": "LexA G54R1 (LexA54) (Escherichia coli K-12 RW118, UniProt P0A7C2 1-202, G54C)", "assay": "EPR"}, "cross-linking [1]": {"target": "the molecule itself", "assay": "cross-linking"}, "EPR": {"target": "the molecule itself", "assay": "EPR"}, "[2]": {"target": "T1, LexA repressor (wild type) (E. coli K-12 strain RW118, UniProt P0A7C2 1-202)", "T1 sequence (looked up)": "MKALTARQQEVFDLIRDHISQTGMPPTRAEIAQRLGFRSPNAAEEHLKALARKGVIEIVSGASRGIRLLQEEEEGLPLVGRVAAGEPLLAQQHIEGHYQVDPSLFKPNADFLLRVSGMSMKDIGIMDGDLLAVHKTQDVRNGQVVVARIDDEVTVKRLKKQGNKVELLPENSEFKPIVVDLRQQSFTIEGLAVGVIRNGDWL", "assay": "cross-linking"}, "cross-linking [3]": {"target": "the molecule itself", "assay": "cross-linking", "remark": "listed apart in the source"}}}
{"binder": "tisB operator 24 bp (Tis_1b/Tis_2b) (dsDNA) DNA 1: TTTACTGTATAAATAAACAGTAAT DNA 2: ATTACTGTTTATTTATACAGTAAA", "values": [{"measurement": "binding result", "setting": "LexA A29R1 (LexA29)", "value": "binds"}, {"measurement": "binding result", "setting": "LexA G54R1 (LexA54)", "value": "binds"}]}
{"binder": "LexA54 (Gly54 replaced by Cys), oxidized (natural protein, E. coli K-12 strain RW118, UniProt P0A7C2 1-202, looked up, covalently bound at residue 54 after oxidation with 0.1 mM CuSO4 and 0.5 mM 1,10-phenantroline) MKALTARQQEVFDLIRDHISQTGMPPTRAEIAQRLGFRSPNAAEEHLKALARKCVIEIVSGASRGIRLLQEEEEGLPLVGRVAAGEPLLAQQHIEGHYQVDPSLFKPNADFLLRVSGMSMKDIGIMDGDLLAVHKTQDVRNGQVVVARIDDEVTVKRLKKQGNKVELLPENSEFKPIVVDLRQQSFTIEGLAVGVIRNGDWL", "values": [{"measurement": "binding result", "setting": "cross-linking [1]", "value": "binds"}]}
{"binder": "LexA29 spin labeled (A29R1) (natural protein, E. coli K-12 strain RW118, UniProt P0A7C2 1-202, looked up, MTSSL nitroxide spin label (R1) on the cysteine at position 29) MKALTARQQEVFDLIRDHISQTGMPPTRCEIAQRLGFRSPNAAEEHLKALARKGVIEIVSGASRGIRLLQEEEEGLPLVGRVAAGEPLLAQQHIEGHYQVDPSLFKPNADFLLRVSGMSMKDIGIMDGDLLAVHKTQDVRNGQVVVARIDDEVTVKRLKKQGNKVELLPENSEFKPIVVDLRQQSFTIEGLAVGVIRNGDWL", "values": [{"measurement": "binding result", "setting": "EPR", "value": "binds"}]}
{"binder": "LexA54 spin labeled (G54R1) (natural protein, E. coli K-12 strain RW118, UniProt P0A7C2 1-202, looked up, MTSSL nitroxide spin label (R1) on the cysteine at position 54) MKALTARQQEVFDLIRDHISQTGMPPTRAEIAQRLGFRSPNAAEEHLKALARKCVIEIVSGASRGIRLLQEEEEGLPLVGRVAAGEPLLAQQHIEGHYQVDPSLFKPNADFLLRVSGMSMKDIGIMDGDLLAVHKTQDVRNGQVVVARIDDEVTVKRLKKQGNKVELLPENSEFKPIVVDLRQQSFTIEGLAVGVIRNGDWL", "values": [{"measurement": "binding result", "setting": "EPR", "value": "binds"}]}
{"binder": "LexA C-terminal fragment (CTD), product of self-cleavage (domain or fragment, E. coli K-12 strain RW118, UniProt P0A7C2 85-202, looked up) GEPLLAQQHIEGHYQVDPSLFKPNADFLLRVSGMSMKDIGIMDGDLLAVHKTQDVRNGQVVVARIDDEVTVKRLKKQGNKVELLPENSEFKPIVVDLRQQSFTIEGLAVGVIRNGDWL", "values": [{"measurement": "binding result", "setting": "[2]", "value": "binds"}, {"measurement": "binding result", "setting": "cross-linking [3]", "value": "binds"}]}
